According to paper PMC4943950, “T4 Phage Tail Adhesin Gp12 Counteracts LPS-Induced Inflammation In Vivo” (Frontiers in Microbiology, 2016):

Biological target: the molecule itself
Assay: SDS-PAGE of the non-heated sample (SDS-resistant oligomer); purified gp12 final preparation, not heated before SDS-PAGE, ambient temperature; trimer band at 172.5 kDa

B1: T4 phage short tail fiber protein (tail adhesin) gp12, recombinant, His-tagged (natural protein, bacteriophage T4, UniProt P10930 1-527, looked up)
chain: MSNNTYQHVSNESRYVKFDPTDTNFPPEITDVQAAIAAISPAGVNGVPDASSTTKGILFIPTEQEVIDGTNNTKAVTPATLATRLSYPNATETVYGLTRYSTNDEAIAGVNNESSITPAKFTVALNNAFETRVSTESSNGVIKISSLPQALAGADDTTAMTPLKTQQLAIKLIAQIAPSETTATESDQGVVQLATVAQVRQGTLREGYAISPYTFMNSSSTEEYKGVIKLGTQSEVNSNNASVAVTGATLNGRGSTTSMRGVVKLTTTAGSQSGGDASSALAWNADVIQQRGGQIIYGTLRIEDTFTIANGGANITGTVRMTGGYIQGNRIVTQNEIDRTIPVGAIMMWAADSLPSDAWRFCHGGTVSASDCPLYASRIGTRYGGNPSNPGLPDMRGLFVRGSGRGSHLTNPNVNGNDQFGKPRLGVGCTGGYVGEVQIQQMSYHKHAGGFGEHDDLGAFGNTRRSNFVGTRKGLDWDNRSYFTNDGYEIDPESQRNSKYTLNRPELIGNETRPWNISLNYIIKVKE
notes: No step that removes the His-Tag is described; also called phage adhesin
  stoichiometry N: 3
